In publication PMC11406361, “Several orphan solute carriers functionally identified as organic cation transporters: Substrates specificity compared with known cation transporters” (The Journal of Biological Chemistry, 2024) one finds Km, Vmax and Vmax/Km data, which are given here for two substances.

Holding throughout (test): cells, lysate or membranes
One data set concerns C[N+](C)(C)CCO. The settings on record: other: SLC35E1, HEK293, net uptake over empty vector cells; pH 7.4.
The next data set deals with CC(N)Cc1ccccc1. Particulars: pH 7.4.
In the next data set the test system is CN1CCC[C@H]1c1cccnc1. Particulars: other: SLC38A10, HEK293, net uptake over empty vector cells; pH 7.4.
The subject of the next data set is Clc1cccc(Cl)c1N=C1NCCN1. Particulars: other: SLC38A10, HEK293, net uptake over empty vector cells; pH 7.4.

Take SLC35E1 (Homo sapiens): in the data set on C[N+](C)(C)CCO, the Km is given as 91.6 (±39.8) μM, the maximal velocity (Vmax) was found to be 8.71e-05 µmol/min/mg and the Vmax/Km was 0.95 µL/min/mg.
SLC38A10 (Homo sapiens): the Km with CC(N)Cc1ccccc1 is reported as 120 (±44.9) μM. For the same substance, the Km with CN1CCC[C@H]1c1cccnc1 is reported as 62.0 (±35.6) μM. Besides, in the data set with Clc1cccc(Cl)c1N=C1NCCN1, the Km is reported as 162 (±141) μM, the Vmax is 0.000427 µmol/min/mg and the Vmax/Km worked out at 2.64 µL/min/mg.
